In patent publication US20150218594A1, “CELL-FREE AND MINIMIZED METABOLIC REACTION CASCADES FOR THE PRODUCTION OF CHEMICALS” (CLARIANT PRODUKTE (DEUTSCHLAND) GMBH, priority 2012, published 2015):
Read-outs that look alike come from different tables or passages of the source.

B1: PDC: Pyruvate decarboxylase PDC (EC 4.1.1.1), Zymomonas mobilis, Seq ID 20 (protein)
chain: MSYTVGTYLAERLVQIGLKHHFAVAGDYNLVLLDNLLLNKNMEQVYCCNELNCGFSAEGYARAKGAAAAVVTYSVGALSAFDAIGGAYAENLPVILISGAPNNNDHAAGHVLHHALGKTDYHYQLEMAKNITAAAEAIYTPEEAPAKIDHVIKTALREKKPVYLEIACNIASMPCAAPGPASALFNDEASDEASLNAAVEETLKFIANRDKVAVLVGSKLRAAGAEEAAVKFADALGGAVATMAAAKSFFPEENPHYIGTSWGEVSYPGVEKTMKEADAVIALAPVFNDYSTTGWTDIPDPKKLVLAEPRSVVVNGIRFPSVHLKDYLTRLAQKVSKKTGALDFFKSLNAGELKKAAPADPSAPLVNAEIARQVEALLTPNTTVIAETGDSWFNAQRMKLPNGARVEYEMQWGHIGWSVPAAFGYAVGAPERRNILMVGDGSFQLTAQEVAQMVRLKLPVIIFLINNYGYTIEVMIHDGPYNNIKNWDYAGLMEVFNGNGGYDSGAGKGLKAKTGGELAEAIKVALANTDGPTLIECFIGREDCTEELVKWGKRVAAANSRKPVNKLLSGRPVLGSSHHHHHH
modifications: Pyruvate decarboxylase (EC 4.1.1.1), Zymomonas mobilis Protein sequence including C-terminal His-Tag
B2: ADH: Alcohol dehydrogenase ADH (EC 1.1.1.1), Geobacillus stearothermophilus, Seq ID 18 (protein)
chain: MKAAVVEQFKEPLKIKEVEKPTISYGEVLVRIKACGVCHTDLHAAHGDWPVKPKLPLIPGHEGVGIVEEVGPGVTHLKVGDRVGIPWLYSACGHCDYCLSGQETLCEHQKNAGYSVDGGYAEYCRAAADYVVKIPDNLSFEEAAPIFCAGVTTYKALKVTGAKPGEWVAIYGIGGLGHVAVQYAKAMGLNVVAVDIGDEKLELAKELGADLVVNPLKEDAAKFMKEKVGGVHAAVVTAVSKPAFQSAYNSIRRGGACVLVGLPPEEMPIPIFDTVLNGIKIIGSIVGTRKDLQEALQFAAEGKVKTIIEVQPLEKINEVFDRMLKGQINGRVVLTLEDKLEHHHHHH
modifications: Alcohol dehydrogenase (EC 1.1.1.1), Geobacillus stearothermophilus Protein sequence including C-terminal His-Tag

How the values were obtained:
[1] = Isobutanol tolerance of enzymes (I50); format: biochemical
[2] = Enzyme temperature optimum; format: biochemical; details: Table 1
Thermal tolerance of PDC = format: physicochemical
[3] = Enzyme half-life at 50° C.
[4] = Ethanol tolerance of enzymes (E50); format: biochemical; details: 50° C.
[5] = PDC activity for natural substrate; format: biochemical
Excerpt: (§1) (J. Mol. Catal. B-Enzym. 2009, 61, 30-35).

[6] = ADH activity with acetaldehyde as substrate; format: biochemical
Excerpt: as §1

[7] = ADH activity, NADH-dependent reduction of isobutyraldehyde; format: biochemical; details: substrate isobutyraldehyde
Excerpt: as §1

[8] = cited from earlier work

Row | Molecule | I50: Isobutanol concentration which causes loss of 50% activity ([1]; 45° C.) | T-Optimum [2] | thermostable up to (Thermal tolerance of PDC) | Half-life, 50° C. [3] [h] | E50: Ethanol concentration which causes loss of 50% activity [4] | Activity, 50° C. [5] [U/mg] | Activity, 50° C. (ADH for acetaldehyde) [6] [U/mg] | I50: Isobutanol concentration which causes loss of 50% activity ([1]; 50° C.) | Activity, 50° C. (ADH for isobutyraldehyde) [7] [U/mg] | T-Optimum ([8]; Table 1, value with literature reference) | T-Optimum ([8]; Table 2, value with literature reference)
1 | B1 | 8 (45° C.) % v/v | 50 50 °C | up to 50 °C | 22 | 20 (50° C.) % v/v | 64 |  |  |  |  | 
2 | B2 |  |  |  | >24 | 25 (50° C.) % v/v |  | 210 | 5 (50° C.) % v/v | 83 | >60^[3] 50 °C | >60^[3] ° C.
